Legend:
[1] = test system: interaction between TP53 and MDM2 or between Iκβα and RelA; experiment: Comparison of altered biotinylation enzymes by the method of Example 2 (Example 4); type: biochemical; conditions: for specificity / non-specific signal of labeling: luminescence detection; for labeling activity on introduction of Q141R mutation into AVVA mutant: compared with AVVA mutant without Q141R
Procedure: In this Example, various altered biotinylation enzymes were evaluated by the method used in Example 2.
Specifically, by a method similar to that for AirID (SEQ ID NO: 3) in Example 2, the interaction between TP53 and MDM2 or between Iκβα and RelA was analyzed using BioID (SEQ ID NO: 1), TurboID (SEQ ID NO: 2), an AirID-S118G mutant (SEQ ID NO: 12), an AWA-R118S mutant (SEQ ID NO: 13), an AVVA-R118G mutant (SEQ ID NO: 14), an AWA-R118S, Q141R mutant (SEQ ID NO: 15), and an AVVA-R118G, Q141R mutant (SEQ ID NO: 16).
The results in the figures were standardized in that the dispensation amount of the magnetic beads on the wells of the plate was 75 nL. An exposure time at the time of luminescence detection with LAS4000 (manufactured by GE Healthcare) was set to 3 minutes for TurboID, and 10 minutes for the protein of any other sequence identification number. A signal value was obtained from a measurement image through use of Array-Pro Analyzer™.

[2] = target: T1, FLAG-GST-fused MDM2 (UniProt P23804 1-489); experiment: proximity-biotinylation bead array, streptavidin-HRP luminescence; labeling 26°C 30 min; exposure 10 min
T1 construct: Immobilized on glutathione magnetic beads on the non-denatured protein array; Order of the parts follows the printed name FLAG-GST; also called FLAG-GST-fused immobilized substance (MDM2); not shown: FLAG tag protein; GST protein (glutathione S-transferase tag)

[3] = target: T2, FLAG-GST-fused RelA (UniProt Q04206 1-551); experiment: proximity-biotinylation bead array, streptavidin-HRP luminescence; labeling 26°C 3 h; exposure 10 min
T2 construct: Immobilized on glutathione magnetic beads on the non-denatured protein array; Order of the parts follows the printed name FLAG-GST; also called FLAG-GST-fused immobilized substance (RelA); not shown: FLAG tag protein; GST protein (glutathione S-transferase tag)

[4] = target: T1, FLAG-GST-fused MDM2; experiment: as above
[5] = target: T2, FLAG-GST-fused RelA; experiment: proximity-biotinylation bead array, streptavidin-HRP luminescence; labeling 26°C 1 h; exposure 10 min
[6] = target: T1, FLAG-GST-fused MDM2; experiment: as above
[7] = target: T1, FLAG-GST-fused MDM2; experiment: proximity-biotinylation bead array, streptavidin-HRP luminescence; labeling 26°C; exposure 10 min

T1 sequence (P23804 whole entry, the tested form may be a part): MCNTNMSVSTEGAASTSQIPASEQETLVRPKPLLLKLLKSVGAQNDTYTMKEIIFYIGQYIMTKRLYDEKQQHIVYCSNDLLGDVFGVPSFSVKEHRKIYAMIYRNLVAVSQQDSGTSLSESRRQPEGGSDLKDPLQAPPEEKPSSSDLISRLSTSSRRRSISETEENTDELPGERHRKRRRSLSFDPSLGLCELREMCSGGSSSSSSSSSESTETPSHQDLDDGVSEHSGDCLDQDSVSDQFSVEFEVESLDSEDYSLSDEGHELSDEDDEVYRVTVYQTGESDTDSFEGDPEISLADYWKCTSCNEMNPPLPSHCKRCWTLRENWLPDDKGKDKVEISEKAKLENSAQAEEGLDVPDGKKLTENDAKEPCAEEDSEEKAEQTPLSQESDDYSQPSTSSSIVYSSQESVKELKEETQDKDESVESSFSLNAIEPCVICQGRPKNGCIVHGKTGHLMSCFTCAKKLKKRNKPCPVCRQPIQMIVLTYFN
T2 sequence (Q04206 other isoform, or with tags, fused parts or gaps): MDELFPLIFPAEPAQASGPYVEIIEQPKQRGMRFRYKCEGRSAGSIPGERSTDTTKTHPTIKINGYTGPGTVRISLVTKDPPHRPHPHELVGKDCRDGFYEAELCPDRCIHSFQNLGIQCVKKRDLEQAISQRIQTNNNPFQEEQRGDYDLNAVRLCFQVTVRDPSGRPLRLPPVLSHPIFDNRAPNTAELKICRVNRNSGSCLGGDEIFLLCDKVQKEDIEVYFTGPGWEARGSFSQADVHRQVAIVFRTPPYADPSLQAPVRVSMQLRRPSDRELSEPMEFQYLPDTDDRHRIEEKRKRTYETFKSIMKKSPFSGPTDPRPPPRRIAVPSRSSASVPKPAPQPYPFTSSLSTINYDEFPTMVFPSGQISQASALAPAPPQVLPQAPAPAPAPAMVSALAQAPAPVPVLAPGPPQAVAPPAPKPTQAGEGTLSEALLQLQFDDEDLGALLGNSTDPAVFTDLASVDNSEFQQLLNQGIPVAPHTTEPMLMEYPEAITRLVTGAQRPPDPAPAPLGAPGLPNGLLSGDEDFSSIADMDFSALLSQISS

Q: How did the “specificity / non-specific signal of labeling” value ([1]; 75 nL magnetic beads) turn out when “BioID: proximity-dependent biotin ligase, SEQ ID NO: 1 [reference compound]” was run?
A: Its value is “low non-specificity”.

Q: And the biotin modification activity ([1]; compared with the other enzymes)?
A: Its biotin modification activity is “lower biotin modification activity than the other enzymes”.

B1: AirID: proximity-dependent biotin ligase, SEQ ID NO: 3 (protein)
chain: MKDNTVPLTLISILADGEFHSGEQLGEQLGMSRAAINKHIKTLRDWGVDVFRVQGKGYCLPEPIQLLDEEKIRQQLDEGSVTVLPVIDSTNQYLLDRLDELTSGDVCIAEYQQAGRGSRGRKWFSPFGANLYLSMYWRLEQGPAAAMGLSLVIGIVMAETLQKLGADGVRVKWPNDLYLNDRKLAGILVEMTGKTGDAAHIVIGAGINLSMREPETDEVDQSWINLQEAGITIDRNQLAARLIKDLRSALRQFEQQGLAPFLSRWEALDNFINRPVKLIIGDREIHGIARGINEQGALLLEQDGVIKPWIGGEISLRSA
modifications: AirID
Q: With B1 as the molecule, how does the “specificity / non-specific signal of labeling” value ([1]; 75 nL magnetic beads) read?
A: The value was “extremely high specificity”.

B2: AirID-S118G mutant: proximity-dependent biotin ligase, SEQ ID NO: 12 (protein)
chain: MKDNTVPLTLISILADGEFHSGEQLGEQLGMSRAAINKHIKTLRDWGVDVFRVQGKGYCLPEPIQLLDEEKIRQQLDEGSVTVLPVIDSTNQYLLDRLDELTSGDVCIAEYQQAGRGGRGRKWFSPFGANLYLSMYWRLEQGPAAAMGLSLVIGIVMAETLQKLGADGVRVKWPNDLYLNDRKLAGILVEMTGKTGDAAHIVIGAGINLSMREPETDEVDQSWINLQEAGITIDRNQLAARLIKDLRSALRQFEQQGLAPFLSRWEALDNFINRPVKLIIGDREIHGIARGINEQGALLLEQDGVIKPWIGGEISLRSA
modifications: AirID_S118G
Q: Which “specificity / non-specific signal of labeling” value ([1]; 75 nL magnetic beads) does the source give for B2 here?
A: The value was “extremely high specificity”.

B3: AWA-R118S, Q141R mutant: proximity-dependent biotin ligase, SEQ ID NO: 15 (protein)
chain: MSEQWSRKREILALLSSGHFVSGEELATQLGISRTAVSKHIAALEEYGVDIYSVKGKGYKLANPISLIDESKLKSAINNRCFYFDEIPSTNGFMLKHAEELKSGDICVAEYQSAGRGSRGRTWVSPYGCHLYFSLYWRFPRGMAQAMGLSLVVACSLVKVLKSFGVDGVGVKWPNDIYLNHKKLAGVLIEMSGQADSECHLVIGIGINMAMSEQQGKKIDQPWSDLSSLTSMPDKTELLIALQKQLKQDLELFEREGLKAFQPRWQEADLFYGKQIKLLMGENQVEGICRGIDEQGAVLLETDDGIQAFIGGEISLRAA
modifications: AVVA-R118S,Q141R
Q: What does the source list for B3?
A: specificity / non-specific signal of labeling ([1]; 75 nL magnetic beads): extremely high specificity; labeling activity on introduction of Q141R mutation into AVVA mutant [1]: enhances its labeling activity

B4: AVVA-R118G, Q141R mutant: proximity-dependent biotin ligase, SEQ ID NO: 16 (protein)
chain: MSEQWSRKREILALLSSGHFVSGEELATQLGISRTAVSKHIAALEEYGVDIYSVKGKGYKLANPISLIDESKLKSAINNRCFYFDEIPSTNGFMLKHAEELKSGDICVAEYQSAGRGGRGRTWVSPYGCHLYFSLYWRFPRGMAQAMGLSLVVACSLVKVLKSFGVDGVGVKWPNDIYLNHKKLAGVLIEMSGQADSECHLVIGIGINMAMSEQQGKKIDQPWSDLSSLTSMPDKTELLIALQKQLKQDLELFEREGLKAFQPRWQEADLFYGKQIKLLMGENQVEGICRGIDEQGAVLLETDDGIQAFIGGEISLRAA
modifications: AVVA-R118G,Q141R
Q: Which “specificity / non-specific signal of labeling” value ([1]; 75 nL magnetic beads) does the source give for B4 here?
A: The value was “extremely high specificity”.

Q: And the “labeling activity on introduction of Q141R mutation into AVVA mutant” value [1]?
A: Its value is “enhances its labeling activity”.

B5: AWA-R118S mutant: proximity-dependent biotin ligase, SEQ ID NO: 13 (protein)
chain: MSEQWSRKREILALLSSGHFVSGEELATQLGISRTAVSKHIAALEEYGVDIYSVKGKGYKLANPISLIDESKLKSAINNRCFYFDEIPSTNGFMLKHAEELKSGDICVAEYQSAGRGSRGRTWVSPYGCHLYFSLYWRFPQGMAQAMGLSLVVACSLVKVLKSFGVDGVGVKWPNDIYLNHKKLAGVLIEMSGQADSECHLVIGIGINMAMSEQQGKKIDQPWSDLSSLTSMPDKTELLIALQKQLKQDLELFEREGLKAFQPRWQEADLFYGKQIKLLMGENQVEGICRGIDEQGAVLLETDDGIQAFIGGEISLRAA
modifications: AVVA-R118S
Q: For B5, which “specificity / non-specific signal of labeling” value ([1]; 75 nL magnetic beads) is on record?
A: The value was “extremely high specificity”.

B6: AVVA-R118G mutant: proximity-dependent biotin ligase, SEQ ID NO: 14 (protein)
chain: MSEQWSRKREILALLSSGHFVSGEELATQLGISRTAVSKHIAALEEYGVDIYSVKGKGYKLANPISLIDESKLKSAINNRCFYFDEIPSTNGFMLKHAEELKSGDICVAEYQSAGRGGRGRTWVSPYGCHLYFSLYWRFPQGMAQAMGLSLVVACSLVKVLKSFGVDGVGVKWPNDIYLNHKKLAGVLIEMSGQADSECHLVIGIGINMAMSEQQGKKIDQPWSDLSSLTSMPDKTELLIALQKQLKQDLELFEREGLKAFQPRWQEADLFYGKQIKLLMGENQVEGICRGIDEQGAVLLETDDGIQAFIGGEISLRAA
modifications: AVVA-R118G
Q: For B6, which “specificity / non-specific signal of labeling” value ([1]; 75 nL magnetic beads) is on record?
A: The value was “extremely high specificity”.

B7: AVVA-R118S mutant-fused Iκβα (other)
fusion protein: MSEQWSRKREILALLSSGHFVSGEELATQLGISRTAVSKHIAALEEYGVDIYSVKGKGYKLANPISLIDESKLKSAINNRCFYFDEIPSTNGFMLKHAEELKSGDICVAEYQSAGRGSRGRTWVSPYGCHLYFSLYWRFPQGMAQAMGLSLVVACSLVKVLKSFGVDGVGVKWPNDIYLNHKKLAGVLIEMSGQADSECHLVIGIGINMAMSEQQGKKIDQPWSDLSSLTSMPDKTELLIALQKQLKQDLELFEREGLKAFQPRWQEADLFYGKQIKLLMGENQVEGICRGIDEQGAVLLETDDGIQAFIGGEISLRAAMFQAAERPQEWAMEGPRDGLKKERLLDDRHDSGLDSMKDEEYEQMVKELQEIRLEPQEVPRSSEPWKQQLTEDGDSFLHLAIIHEEKALTMEVIRQVKGDLAFLNFQNNLQQTPLHLAVITNQPEIAEALLGAGCDPELRDFRGNTPLHLACEQGCLASVGVLTQSCTTPHLHSILKATNYNGHTCLHLASIHGYLGIVELLVSLGADVNAQEPCNGRTALHLAVDLQNPDLVSLLLKCGADVNRVTYQGYSPYQLTWGRPSTRIQQQLGQLTLENLQMLPESEDEESYDTESEFTEFTEDELPYDDCVFGGQRLTL
Q: How did the signal value [2] turn out when B7 was run?
A: Its signal value is 320.

Q: And the signal value [3]?
A: Its signal value is 50000.

Q: And the signal value [4]?
A: Its signal value is 330.

Q: And the signal value [5]?
A: The signal value was 11100.

Q: What about the signal value [6] of the same molecule?
A: Its signal value is 310.

Q: Does B7 bind [7]?
A: Result: no binding

B8: AVVA-R118G,Q141R mutant-fused Iκβα (other)
fusion protein: MSEQWSRKREILALLSSGHFVSGEELATQLGISRTAVSKHIAALEEYGVDIYSVKGKGYKLANPISLIDESKLKSAINNRCFYFDEIPSTNGFMLKHAEELKSGDICVAEYQSAGRGGRGRTWVSPYGCHLYFSLYWRFPRGMAQAMGLSLVVACSLVKVLKSFGVDGVGVKWPNDIYLNHKKLAGVLIEMSGQADSECHLVIGIGINMAMSEQQGKKIDQPWSDLSSLTSMPDKTELLIALQKQLKQDLELFEREGLKAFQPRWQEADLFYGKQIKLLMGENQVEGICRGIDEQGAVLLETDDGIQAFIGGEISLRAAMFQAAERPQEWAMEGPRDGLKKERLLDDRHDSGLDSMKDEEYEQMVKELQEIRLEPQEVPRSSEPWKQQLTEDGDSFLHLAIIHEEKALTMEVIRQVKGDLAFLNFQNNLQQTPLHLAVITNQPEIAEALLGAGCDPELRDFRGNTPLHLACEQGCLASVGVLTQSCTTPHLHSILKATNYNGHTCLHLASIHGYLGIVELLVSLGADVNAQEPCNGRTALHLAVDLQNPDLVSLLLKCGADVNRVTYQGYSPYQLTWGRPSTRIQQQLGQLTLENLQMLPESEDEESYDTESEFTEFTEDELPYDDCVFGGQRLTL
Q: For B8, which signal value [2] is on record?
A: The signal value was 550.

Q: And the signal value [3]?
A: Its signal value is > 65000.

Q: And the signal value [4]?
A: Its signal value is 430.

Q: What about the signal value [5] of the same molecule?
A: Its signal value is 10100.

Q: And the signal value [6]?
A: Its signal value is 280.

Q: Does B8 bind [7]?
A: Result: no binding

B9: TurboID: proximity-dependent biotin ligase, SEQ ID NO: 2 (protein)
chain: MKDNTVPLKLIALLANGEFHSGEQLGETLGMSRAAINKHIQTLRDWGVDVFTVPGKGYSLPEPIPLLNAKQILGQLDGGSVAVLPVVDSTNQYLLDRIGELKSGDACIAEYQQAGRGSRGRKWFSPFGANLYLSMFWRLKRGPAAAIGLGPVIGIVMAEALRKLGADKVRVKWPNDLYLQDRKLAGILVELAGITGDAAQIVIGAGINVAMRRVEESVVNQGWITLQEAGINLDRNTLAATLIRELRAALELFEQEGLAPYLPRWEKLDNFINRPVKLIIGDKEIFGISRGIDKQGALLLEQDGVIKPWMGGEISLRSAEK
modifications: TurboID
Q: How did the signal intensity ([1]; 75 nL magnetic beads, exposure 3 minutes for TurboID) turn out when B9 was run?
A: Its signal intensity is “high signal intensity”.

Q: What about the “specificity / non-specific signal of labeling” value ([1]; 75 nL magnetic beads) of the same molecule?
A: The value was “a certain signal (non-specific) is found even for an interaction that should be negative”.
